Residue numbers refer to the chain shown, from its start.
B1: antigen binding unit 2 (ABU2) (scFv)
scFv: GVQLVESGAEVKKPGASVKVSCKASGYTFTELSMHWVRQAPGKGLEWMGLVDPEDGETIYAEKFQGRVTITADTSTDTAYMELSSLRSEDTAVYYCATDLAAGTNDYWGKGTLVTVSSGGGGSGGGGSGGGGSQAVVTQEPSVTVSPGGTVTLTCGSDTGAVTSGHYPYWFQQKPGQAPRTLIYDTSNKHSWTPARFSGSLLGGKAALTLSGAQPDDEADYYCLLSYSGEWVFGGGTKVTVL
notes: also called parent ABU2; parental ABU2
B2: ABU2 (ScFv_Fc) (Fc fusion, not shown: a dimerising Fc or GST)
scFv: B1 scFv
notes: The format is printed only on the sheet; also called parent ABU2 as scFv-Fc
B3: ABU3 (ScFv_Fc) (Fc fusion, not shown: a dimerising Fc or GST)
scFv: B1 scFv with T159S, A161P, S164R, Y184D, N188R
notes: The format is printed only on the sheet
B4: ABU5 (scFv)
scFv: B1 scFv with D52V, E54D
B5: ABU4 (scFv)
scFv: B1 scFv with D52V, E54A

Legend:
[1] = target: T1, reference peptide RMFS1 complexed with HLA on T2 cells (T2/RMFS1); assay: flow cytometry on T2/RMFS1 cells
T1 construct: whole, on cells

[2] = target: T2, reference peptide RMFS2 complexed with HLA on T2 cells (T2/RMFS2); assay: flow cytometry on T2/RMFS2 cells
T2 construct: whole, on cells

[3] = target: T3, RMF/HLA.A0201 complex (WT1 peptide RMF complexed with recombinant HLA.A0201-BSP and human β2m) (human, labeled with a biotinylation kit (BirA) on the BSP); assay: SPR (Biacore T200), 1:1 Langmuir fit
T3 construct: also called RMF/HLA complex; WT1 peptide (RMF) complexed with HLA; not shown: biotin protein ligase BirA substrate peptide (BSP)

[4] = target: T3, RMF/HLA.A0201 complex (WT1 peptide RMF …); assay: ELISA with 2.5, 0.5 and 0.2 ug/ml RMF/HLA complex, scFv clone

Binder	Kd [3]	binding result [4]	further results
B1			binding result [1]: no binding; binding result [2]: no binding
B2	1470 pM		
B3	46.7 pM		
B4		binds	
B5		binds	
